# Experimental data as given in US20210147513A1 (published 2021).
# Residue numbers refer to the chain shown, from its start.
# B1: 3A1 scFvFc (scFv, V domains shown)
# VH: QVQLVQSGAEVKKPGSSVKVSCKASGGTFSSYAVSWVRQAPGQGLEWVGRIIPIFGKANYAQKFQGRVTITADKSTSTAYMELSSLRPEDTAVYYCARDQGISANFKDAFDIWGQGTTVTVSS
# VL: ETTLTQSPATLSVSPGERATLSCRASESVGSNLAWYQQKPGQAPSLLIYGASTRATGIPDRFSGSGSGTDFTLTISSLQSEDFAAYYCQQYNNWPLTFGPGTKVEIK
# B2: 3A1 IgG1 (antibody, V domains shown)
# VH: B1 VH
# VL: B1 VL
# B3: 1F8 IgG1 (antibody, V domains shown)
# VH: EVQLVQSGAEVKEPGSSVKVSCKASGGTFGSYAINWVRQAPGQRLEWMGWIDAANGNTKYSQKFQGRVTITGDTSASTAYMELSSLRSEDTAVYYCARDRWMTTRAFDIWGQGTMVTVSS
# VL: QPVLTQPPSASGTPGQRVTISCSGSSSNIGSNYVFWYQQLPGMAPKLLISRNNQRPSGVPDRFSGSKSGTSASLAISGPQSEDEADYYCAAWDDSLRGPVFGGGTRVTVL
# B4: 3B12 scFvFc (scFv, V domains shown)
# VH: QVQLVQSGAEVKKPGSSVKVSCKASGGTFSSYAISWVRQAPGQGLEWMGGIIPIFGTANYAQKFQGRVTITADKSTSTAYMELSSLRSEDTAVYYCARASYCSTTSCASGAFDIWGQGTLVTVSS
# VL: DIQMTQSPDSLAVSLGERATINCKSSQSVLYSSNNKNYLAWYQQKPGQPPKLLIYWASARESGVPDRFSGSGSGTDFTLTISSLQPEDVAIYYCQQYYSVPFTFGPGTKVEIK
# B5: 3B11 IgG1 (antibody, V domains shown)
# VH: B4 VH with A99V, S100G, T104S, A108H, S109I, L120T
# VL: ETTLTQSPGTLSLSPGERATLSCRASQSVSSSIAWYQQKPGQAPRLLMFDSSTRATGIPDRFSGSGSGTDFTLNISSLEPEDFAVYYCQQYSSSPYTFGQGTKLEIK
# Columns and labels:
# [1] = target: S protein of live MERS-CoV EMC/2012 (MERS-CoV); experiment: cell-based or functional assay
# [2] = target: T1, S protein of live MERS-CoV EMC/2012 (MERS-CoV); experiment: cell-based or functional assay
# T1 chain: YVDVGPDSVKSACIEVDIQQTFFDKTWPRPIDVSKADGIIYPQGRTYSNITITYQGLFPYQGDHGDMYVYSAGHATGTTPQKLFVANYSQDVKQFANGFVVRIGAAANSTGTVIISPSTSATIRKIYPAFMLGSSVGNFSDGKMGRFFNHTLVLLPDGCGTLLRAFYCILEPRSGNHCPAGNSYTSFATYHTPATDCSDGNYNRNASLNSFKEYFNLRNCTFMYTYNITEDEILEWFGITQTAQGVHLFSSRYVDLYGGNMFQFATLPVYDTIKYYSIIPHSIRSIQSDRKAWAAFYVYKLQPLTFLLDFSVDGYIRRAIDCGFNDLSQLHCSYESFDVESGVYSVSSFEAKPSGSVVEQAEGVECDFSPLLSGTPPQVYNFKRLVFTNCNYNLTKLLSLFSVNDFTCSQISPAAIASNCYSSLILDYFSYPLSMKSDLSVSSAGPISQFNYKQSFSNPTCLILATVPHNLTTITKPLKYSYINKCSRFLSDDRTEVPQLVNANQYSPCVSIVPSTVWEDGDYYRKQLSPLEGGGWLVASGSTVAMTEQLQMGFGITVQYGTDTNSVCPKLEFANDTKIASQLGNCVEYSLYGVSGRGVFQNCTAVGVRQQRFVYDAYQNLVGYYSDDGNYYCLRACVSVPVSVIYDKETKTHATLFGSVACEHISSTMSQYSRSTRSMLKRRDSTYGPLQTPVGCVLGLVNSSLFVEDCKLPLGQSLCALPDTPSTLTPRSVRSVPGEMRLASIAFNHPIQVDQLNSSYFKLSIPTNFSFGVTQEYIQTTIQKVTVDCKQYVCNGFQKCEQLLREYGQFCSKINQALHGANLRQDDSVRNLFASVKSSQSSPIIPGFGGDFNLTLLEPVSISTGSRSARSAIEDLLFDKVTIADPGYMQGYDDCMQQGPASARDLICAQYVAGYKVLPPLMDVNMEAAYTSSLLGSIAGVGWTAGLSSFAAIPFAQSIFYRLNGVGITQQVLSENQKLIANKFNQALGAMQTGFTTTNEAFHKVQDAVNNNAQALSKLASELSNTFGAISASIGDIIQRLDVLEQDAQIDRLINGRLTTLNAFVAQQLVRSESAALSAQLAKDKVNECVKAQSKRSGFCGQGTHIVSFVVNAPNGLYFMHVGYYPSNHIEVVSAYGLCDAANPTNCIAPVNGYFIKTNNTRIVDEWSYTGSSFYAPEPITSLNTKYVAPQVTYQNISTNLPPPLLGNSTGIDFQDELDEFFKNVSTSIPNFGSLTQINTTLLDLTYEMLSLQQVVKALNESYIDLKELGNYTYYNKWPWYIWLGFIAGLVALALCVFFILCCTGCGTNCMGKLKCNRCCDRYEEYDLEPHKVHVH
binder,measurement,setting,value
B1,"IC50 (µg/ml), PRNT50 live virus, wt.",[1],1.46 µg/mL
B2,"IC50 (µg/ml), PRNT50 live virus, wt.",[1],4.5 µg/mL
B3,"IC50 (µg/ml), PRNT50 live virus, wt.",[1],4.05 µg/mL
B4,"IC50 (µg/ml), PRNT50 live virus, wt.",[2],1.25 µg/mL
B5,"IC50 (µg/ml), PRNT50 live virus, wt.",[1],3.5 µg/mL
